Data published in publication PMC4888461 (Biochemical Journal, 2016).
Read-outs that look alike come from different tables or passages of the source. Each block holds one molecule with its values, some of them ahead of it.

B1: BMP-2 (bone morphogenetic protein 2), wild type (ligand, UniProt P12643 283-396, looked up)
chain: QAKHKQRKRLKSSCKRHPLYVDFSDVGWNDWIVAPPGYHAFYCHGECPFPLADHLNSTNHAIVQTLVNSVNSKIPKACCVPTELSAISMLYLDENEKVVLKNYQDMVVEGCGCR
B2: His-tagged fl-Gremlin-1 (natural protein, human, UniProt O60565 25-184, looked up)
chain: KKKGSQGAIPPPDKAQHNDSEQTQSPQQPGSRNRGRGQGRGTAMPGEEVLESSQEALHVTERKYLKRDWCKTQPLKQTIHEEGCNSRTIINRFCYGQCNSFYIPRHIRKEEGSFQSCSFCKPKKFTTMMVTLNCPELQPPTKKKRVTRVKQCRCISIDLD

Assays:
[1] = molecular target: His-tagged fl-Gremlin-1 (human) (UniProt O60565); test: BLI
[2] = molecular target: His-tagged ΔN-Gremlin-1 (human) (UniProt O60565); test: BLI
[3] = molecular target: His-tagged ΔN-Gremlin-1 (human) (UniProt O60565); test: BLI; remark: listed apart in the source
[4] = molecular target: His-tagged fl-Gremlin-1 (human) (UniProt O60565); test: BLI; remark: listed apart in the source
His-tagged fl-Gremlin-1 [5] = molecular target: B2; test: BLI
His-tagged fl-Gremlin-1 [6] = molecular target: B2; test: BLI; remark: listed apart in the source
SEC-SAXS = molecular target: the molecule itself; test: SEC-SAXS
[7] = molecular target: B1; test: BLI
SEC-MALS = molecular target: the molecule itself; test: SEC-MALS
[8] = molecular target: B1; test: BLI; remark: listed apart in the source
[9] = molecular target: B1; test: BLI; remark: listed apart in the source

Kd [1]: 66.1 nM
Kd [2]: 75.4 nM
Kd [3]: 77.8 nM
Molecule: BMP-2 mutant # 1 (49 F → A) (ligand)

Kd [1]: 45.9 nM
Kd [2]: 44.7 nM
Kd [4]: 32.5 nM
Molecule: BMP-2 mutant # 2 (66 L → R) (ligand)

Kd [1]: 30.4 nM
Kd [2]: 95.9 nM
Kd [3]: 175 nM
Molecule: BMP-2 mutant # 3 (49 F → A, 66 L → R) (ligand)

Kd [1]: 47.2 nM
Kd [2]: 176 nM
Molecule: BMP-2 mutant # 4 (33 V → T, 34 A → S) (ligand)

Kd [1]: 176 nM
Kd [4]: 176 nM
koff [3]: 0.001 s⁻¹
Molecule: BMP-2 mutant # 5 (98 V → T, 100 L → N) (ligand)

Kd [2]: 301 nM
Molecule: BMP-2 mutant # 6 (90 L→ Q, 92 L → R) (ligand)

Molecule: B1
Kd (His-tagged fl-Gremlin-1 [5]): 9 nM
koff (His-tagged fl-Gremlin-1 [5]): 0.0018 s⁻¹
Kd (His-tagged fl-Gremlin-1 [6]): 5.6 nM

Molecule: B2
stoichiometry N (SEC-SAXS): 2

Kd [7]: 16.7 nM
koff [7]: 0.005 s⁻¹
Kd [8]: 5.2 nM
B3: His-tagged ΔN-Gremlin-1 (domain or fragment, human, UniProt O60565 72-184, looked up)
chain: EVLESSQEALHVTERKYLKRDWCKTQPLKQTIHEEGCNSRTIINRFCYGQCNSFYIPRHIRKEEGSFQSCSFCKPKKFTTMMVTLNCPELQPPTKKKRVTRVKQCRCISIDLD
stoichiometry N (SEC-MALS): 2

Kd [9]: 8.5 nM
B4: untagged ΔN-Gremlin-1 (domain or fragment, human, UniProt O60565 72-184, looked up)
chain: EVLESSQEALHVTERKYLKRDWCKTQPLKQTIHEEGCNSRTIINRFCYGQCNSFYIPRHIRKEEGSFQSCSFCKPKKFTTMMVTLNCPELQPPTKKKRVTRVKQCRCISIDLD
